From the supplement of paper PMC9170038

Test system: K4 kissing-loop RNA reporter
Assay: apparent KD of K4 kissing-loop reporter; higher = weaker reporter binding
Details: Eterna round: R107
Method: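 RNA-MaP round R107: designed RNA switches with theophylline, tryptophan, arginine or FMN aptamers are transcribed on-chip within common flanks. They are titrated with a labelled K4 kissing-loop RNA reporter in RNA-MaP buffer (100 mM Tris pH 7.5, 80 mM KCl, 4 mM MgCl2), without ligand or with the indicated ligand. Median apparent KD per design.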

[1] = input ligand: theophylline 20 uM
[2] = input ligand: tryptophan 2.4 mM
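Further: bound reporter read as fluorescence of individual clusters on recovered sequencing chips by microscopy, with normalized cluster intensities fitted with a binding model.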

Sequence	apparent KD of K4 kissing-loop reporter (input ligand: FMN 200 uM) [nM]	apparent KD of K4 kissing-loop reporter (input ligand: arginine 13.2 mM) [nM]	apparent KD of K4 kissing-loop reporter (input ligand: none) [nM]	apparent KD of K4 kissing-loop reporter [1] [nM]	apparent KD of K4 kissing-loop reporter [2] [nM]
UUGAGCCGGACCGAAGUCCGGCUCUGCGAGCGAGGACCGGUACGGCCGCCACUCGGUGCAGUGAUGUUGCAUGGCCGCAAGGCCG [#2 Exclusion - Tryptophan A Attempt #8 (HarryS)]	424	286	418	339	401
CCAUCCGAGUCGGCCGCCACUUUGAGUGAUGUUUGGAGUCUGAGUCAACAUAAAUACUUAGUUUAAAGGACCGGGACUUCGGAUG [theeternabot_exclusion_KL_Trp_B_7]	773	722	1020	1060	363
UGUGAACAAAAGUAGAGUGGACCACUAUAGCGAGGACCGGUACGGCCGCCACUCGUAUAUAAAUUCAGUGAUGUUGAAAAGAGCU [Exclusion Tryptophan A GF1]	175	283	215	260	149
UGGUUUGGAAGUGAUGUUUCUAUAAGUGAUACCAGACAAAAGAAAGUCCCUUGGCAGCACAAUGAUGCCAAGGAAACGGCAUGAU [#15 K4 Theophylline A Same State]	179	164	174	157	150
AGAUCUGUAACAGAUACCAGAGGACGAUGAUCGGAUAGUGAUGUUAUCUAUCAGUCGUCGCUCCCUUGGCAGCUGUUACAGAUCA [Omei KL Theo B SS B v2]	839	450	776	552	662
GGUAGCAUGGCGGCCGCCACUGAGGCCCUAUACGAGUCCUAAACAACCUAGUGAUGUUAGGAGUCCAGGACCGGGCCAUGCUACC	271	175	254	262	440
AAACCAAUCAGAGGAUAUUCUUUAUUCGACAUAACCUUCUAUAAGGUGCAGUGAUGUUGCAAUAUAGGAGAAGGCUGAUUGACAA [Exclusion FMN B Gf 13]	232	338	516	488	413
GUACGGCGGGCGGCCGCCACUGGUAUACGAGUGAUGUUCGGAUAUACGUGAUGUAUGGUAAUUAACAGGACCGGGUCAGGGCCGG [whbob_SS_Tryp_B_t23]	115	158	229	147	119
AAUGUAUUCCACAUGAGUGAUGUUCAUGUGCGAGGACCGGUACGGCCGCCACUCGCAGUUGUGAUCAGUUCUGAAUACAUUAAUG [KL-XTryp-A3]	229	225	219	235	331
AGAGUUAUGCGAGGAUAUGCGGUUAGUACUCAAAGAGUACUAACGCAGAGUGAUGUUCUGUGAAACGCAGAAGGUGCAUAACUCA [Omei KL FMN B SS B v3]	153	216	280	238	229
AAAAUAACCCAGUGAUGUUGGUCUCCAGAUACCAGCGACGAAAGUCGCCCUUGGCAGCUGUGGACGUACAAAAUAAGUACGUCCU	661	629	776	485	558
AGAACUGUCUGGGAUACCAGCCGAGGAGUGAUGUUCCGGCUCGACGAAACGUCGAGCCACGGCCCUUGGCAGCUCAGACAGUUCA [#21 K4 Theophylline B Same State]	674	332	1050	1250	759
AGGUCACCACUACAGUGAUGUUGUAGGGAGCAGGAUAUGCAGAAAUGCAGAAGGGCUCGCUCCCGGUGACCGAAUGAAACAUUCA [Omei KL FMN A SS A v6]	432	258	318	289	282
GUGGCACGAAAGUGCCACGCAUCCUCUCCCUAGGAUAUCUGGAAACAGAGAAGGAGGUCAUGAGUGAUGUUCAUCCAGAGGAUGC	258	677	756	738	491
GGAUAGGAUAGAGGAUAUGGAAAACACAGAAAUAACUUGUUGUGUUUAUCCAUAGGGAGUGAUGUUCCAGAAGGCUGUCCUAUCG [MatMod 20 - Jieux - Exclusion - FMN B]	284	200	192	219	151
GUCUCAAAAGAGGCAAGCACUAACGAGGACAAGGAUAUCAUCUCAAUGAGAAGGUGUCCUCGUCCUUAGUGAUGUUAAGGAGUGC [Omei KL FMN A SS E v5]	348	226	211	376	356
UGAUAGGACAGAAGGAGCGGAAGUGAUGUUUCCAAAUGGAUAAGGUGUCAAAAGACACCCUUCCAGGUAGGUCGCUGUCCUAUCU [ArgBX 14 #Palindromic #SwitchBubble #StaticStem]	111	112	130	102	101
AGAGUUAUGCGAGGAUAUGCGGUUAGUACUCAAAGAGUACUAACGCAGAGUGAUGUUCUGUGAAACACAGAAGGUGCAUAACUCA [Omei KL FMN B SS B v2]	950	116	249	205	148
AUUCAGAUCUGAAGGAGCGCCUUGACAAAUUACUGCUUUGAGCAGUGAUGUUGCUCAAUUAGGCAGGUAGGUCGCAGAUCUAACC [Arg B Ex t7]	377	335	414	383	389
ACGUGCACCAGUGAUGUUGGAAAAUAUGAAGGAGCGGGUGAAAACCCAGGUAGGUCGCAUAAUAGCACGAGCCACGAAAGUGGCA	125	138	157	128	122
GGAGGCUAUGCAGGAUAUAGUCGGUUGAGUGAUGUUUAACGACUAAACCUUCUAAGUCACAGCCCGCUAGAAGGGCAUAGCCUCC	427	225	258	229	266
UGUGAGCUGUCGACAAAAGUCGACUAAAACGAGGAUAUGACGAAAGUCAGAAGGCGUCAAUAAUGGAGUGAUGUUCCUGCUCACU [FmnA 9 #SwitchBubble #K4Late]	256	404	552	453	401

Sequence	apparent KD of K4 kissing-loop reporter (input ligand: FMN 200 uM) [nM]	apparent KD of K4 kissing-loop reporter (input ligand: arginine 13.2 mM) [nM]	apparent KD of K4 kissing-loop reporter (input ligand: none) [nM]	apparent KD of K4 kissing-loop reporter [1] [nM]	apparent KD of K4 kissing-loop reporter [2] [nM]
GGUAGCAUGGCGGCCGCCACUCGCAUCACAGGCCAUUAACCGCCCUCGUAAAGUGAUGUUUUACAGAGGACCGGGCCAUGCUACC	331	257	297	323	195
AUCAUUGAGUGAUGUUCAAUGGGUUUUCCCAAGGAUAUUCGGAGCUGAAGAAGGUGGCCCUCGAUAUCAGUAUCAACCUGAAAGC [theeternabot_exclusion_KL_FMN_A_11]	360	340	381	388	243
GGAUAGGACAGAGGAUAUCUCUGAGGCAAGAAAACUUGUCUCUAAAGAGAUGACUCAGUGAUGUUGAGAGAAGGCUGUCCUAUCG [FmnBX 9 - #SwitchBubble #StaticStem]	211	143	152	155	148
CCCUCACGAGUGAUGUUCGUAGGGUACAGUCAGGAUAUCAUGCGGUUGAGAAGGGACAGAGAGGGCGGCGGCGGGUUGCUCAUCU [Isanausbe]	197	217	325	266	215
AAACGCUGUGAAUAACACAGCGAAAAUUCGCGAGGACCGGUACGGCCGCCACUCGCUAACUGCGAGUGAUGUUCGAUAAUAAAAU [Mat - Mod of OpenEnded 3 - D11]	182	94.8	198	210	105
AAAUAUUCGAGUGAUGUUCGUUAAAUUACAGAGGAUAUGCUUAAAAGCAGAAGGCUGUAUUUCUAUUUGUUAUGUAAUUUUAAAA [JR_ExcFMNA_Sub004]	117	209	157	196	115
GUCCCGAGUGAUGUUCGGGUCGUUUGGGAAGGAGCGCCCGGAAGGGCAGGUAGGUCGCCCGGACCCUGCAGGUAACUGUUGGGCC [#2 Same State - Arginine A Attempt #19 (HarryS)]	206	154	210	215	194
AAGUGUCAUUAGACACAGACUACAAUACGCUAGGAUAUGCUGAUAAGCAGAAGGAGUGAUGUUCCUUUCAAGUAGUCAAUUAAAU [FmnAX 22 Mat Inspired #SwitchBubble #StaticStem #K4Late]	319	140	136	166	124
GAUUUAGAGGCGGCCGCCACUAGUGAUGUUAGUGAUGUUUGAUACUGUAUAUAUCGGCGUGUAGAUAGGACCGGGCCUGAUGGAG [drrdmullin]	259	176	266	210	196
CGCGUAUCGGCAGGAUAUGGAGUUGAGUGAUGUUCAGCAAUGGGUCAUCAUCUUUAUGACAAUCCACCAGAAGGGCCGAUACGCG	622	632	1100	944	812
GGAGGGAUCUCGGCCGCCACUCGUAAGAAAUGGGCCUCAGGGAUAUAGUGAUGUUAUGUAAAGAAGAGGACCGGGAGAAAGAAGG [ExTryptoB.Dd]	222	208	247	306	209
UGAUACCAGACGGCCGCCACUGGGACCGGGAGUGAUGUUCCAAAUAAAAGAAGCUCGGCCGCCACUAGGACCGGGUCUGGUAUCU [TrypBX 21 #DoubleAptamer #SwitchBubble]	395	261	339	367	182
UCUUGAGUAUAUGAUACCAGCAGUGAGAGACAGGAAGUAUAGUGAUGUUAUAUGAGAGAAUGCCCUUGGCAGCGUGUGCGGUGGG [SSTheophylB.S]	103	144	112	187	94.7
UUAGUUGAAAGUGAUACCAGACGAGUGAAGGGAAGAAAUUAAGUUGGAGUGAUGUUCCGCGUCCCUUGGCAGCACUUUGUAAUUU [Exclusion Theophylline B GF 22]	135	151	125	161	121
ACGUAGUUCUAGGAUACCAGCCAAGGCGCAGGACAAAAGUCCUGCGUCGCCAGUGAUGUUGGCCCUUGGCAGCCUAGAACUACGA [Omei KL Theo B Exc B v12]	334	302	304	364	308
UGGAGUGCCUGGUCGUCACUAUGCCAACCACGAGGACCGGUACGGCCGCCACUCGUGAGGGAUAUUCAGAAAGUGAUGUUUUUUG [theeternabot_exclusion_KL_Trp_A_1]	590	370	529	450	403
AGAGGUCCCAGUGAUGUUGGUGCGUUUGGUCGAGGACCGGUACGGCCGCCACUCGUUCAUAGUAAGCCCUCUUUAGUGUUUCUAA [theeternabot_sameState_KL_Trp_A_9]	544	336	428	551	186
GCCGCAAGGCUAGCAGCAAUAGGCGCUCGCUAGGAUAUCUGGAAACAGAGAAGGAGCUGGAGUGAUGUUUUACCUCCUUGUUAUU	1000	735	950	814	657
UUUCGGUUCUGAGGAUAUUCGGACAAAUAUAGUGAUGUUGUAUAAGGAGGAGGGUGUUGGCAGUGCGGAGAAGGCAGACCACGAU [ExFMNB.X]	869	720	747	575	621
AAAACGCUGGAUGAAUAACAUCUAGCGAAUCGAGGACCGGUACGGCCGCCACUCGGAGCUAAACUGCGAGUGAUGUUCGUAAAAU [Mat - Mod of OpenEnded 3 - D18]	405	223	588	426	428
GGAUAGGAUAGAGGAUAUGGGCUAGGCAAGAAUAACUUGUCUAGCAAAUCCAUGAGGAGUGAUGUUCCAGAAGGCUGUCCUAUCG [FmnBX 1 U9]	901	169	152	211	128
